{"source": "patent US20120052092A1", "about": "(IMPERIAL INNOVATIONS, published 2012)", "binders": {"B1": {"name": "fH67 (CCPs 6 and 7 of factor H) (other)", "chain": "TLKPCDYPDIKHGGLYHENMRRPYFPVAVGKYYSYYCDEHFETPSGSYWDHIHCTQDGWSPAVPCLRKCYFPYLENGYNQNYGRKFVQGKSIDVACHPGYALPKAQTTVTCMENGWSPTPRCI", "notes": "domain: CCPs 6 and 7; also called CCPs 67; Factor H domains 6 & 7"}}, "target": "T1, factor H binding protein (wild type, variant 1) (Neisseria meningitidis, UniProt E6MV22 20-274)", "T1 sequence": "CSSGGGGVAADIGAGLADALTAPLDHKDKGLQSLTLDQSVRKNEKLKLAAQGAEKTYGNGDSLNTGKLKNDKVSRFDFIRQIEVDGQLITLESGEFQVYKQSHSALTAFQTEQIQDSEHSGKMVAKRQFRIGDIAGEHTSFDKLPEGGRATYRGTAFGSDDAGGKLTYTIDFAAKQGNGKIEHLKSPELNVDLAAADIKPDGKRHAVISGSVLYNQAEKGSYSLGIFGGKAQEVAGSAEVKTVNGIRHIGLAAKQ", "assay": "derived from binding studies (SPR)", "data": [{"binder": "B1", "values": [{"measurement": "ΔG (calculated from KD)", "result": -11, "unit": "kcal/mol"}]}]}
